Assay results taken from patent US20160194407A1 (AstraZeneca / MedImmune, published 2016).
Where a chain is given by its changes, count along the chain named.

What was measured:
[1] = target: T1, cynomolgus CD73 extracellular domain (ECD) (cynomolgus); assay: SPR ProteOn, antibody captured by anti-human Fc, CD73 ECD in mobile phase, 1:1 model
T1 construct: extracellular domain; also called Cynomolgus CD73 ECD; cyno CD73 (SPR Proteon)

human CD73 N185G = target: T2, human CD73 N185G (human, UniProt P21589 27-553, N185G); assay: SPR ProteOn, His-tagged CD73 variant on HTG chip, 2:1 fit
T2 sequence: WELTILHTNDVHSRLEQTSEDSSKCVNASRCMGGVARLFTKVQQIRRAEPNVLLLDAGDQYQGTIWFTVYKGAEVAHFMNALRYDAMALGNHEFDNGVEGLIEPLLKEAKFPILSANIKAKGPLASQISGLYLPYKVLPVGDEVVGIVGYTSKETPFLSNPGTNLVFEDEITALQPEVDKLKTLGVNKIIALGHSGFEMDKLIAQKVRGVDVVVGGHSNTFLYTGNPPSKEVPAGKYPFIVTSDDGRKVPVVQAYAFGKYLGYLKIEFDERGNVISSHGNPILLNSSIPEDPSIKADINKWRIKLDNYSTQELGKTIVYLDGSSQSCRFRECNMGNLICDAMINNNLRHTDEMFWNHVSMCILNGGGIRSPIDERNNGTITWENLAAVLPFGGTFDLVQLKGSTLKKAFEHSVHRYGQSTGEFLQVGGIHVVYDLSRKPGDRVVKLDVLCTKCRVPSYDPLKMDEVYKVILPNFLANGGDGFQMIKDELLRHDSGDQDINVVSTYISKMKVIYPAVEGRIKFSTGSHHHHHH

human CD73 V144K + N185G = target: T3, human CD73 V144K + N185G (human, UniProt P21589 27-553); assay: SPR ProteOn, CD73 variant on HTG chip
T3 chain: T2 sequence with V144K, T350A

human CD73 K180A + N185G = target: T4, human CD73 K180A + N185G (human, UniProt P21589 27-553, K180A; N185G); assay: SPR ProteOn, CD73 variant on HTG chip
T4 sequence: T2 sequence with K180A

CD73 chimera KO_Nterm = target: T5, CD73 chimera KO_Nterm (chicken (Gallus gallus); human); assay: SPR ProteOn, CD73 variant on HTG chip
T5 construct: Human limits converted from mature numbering (+26); also called N-terminal domain-swapped CD73
T5 chain: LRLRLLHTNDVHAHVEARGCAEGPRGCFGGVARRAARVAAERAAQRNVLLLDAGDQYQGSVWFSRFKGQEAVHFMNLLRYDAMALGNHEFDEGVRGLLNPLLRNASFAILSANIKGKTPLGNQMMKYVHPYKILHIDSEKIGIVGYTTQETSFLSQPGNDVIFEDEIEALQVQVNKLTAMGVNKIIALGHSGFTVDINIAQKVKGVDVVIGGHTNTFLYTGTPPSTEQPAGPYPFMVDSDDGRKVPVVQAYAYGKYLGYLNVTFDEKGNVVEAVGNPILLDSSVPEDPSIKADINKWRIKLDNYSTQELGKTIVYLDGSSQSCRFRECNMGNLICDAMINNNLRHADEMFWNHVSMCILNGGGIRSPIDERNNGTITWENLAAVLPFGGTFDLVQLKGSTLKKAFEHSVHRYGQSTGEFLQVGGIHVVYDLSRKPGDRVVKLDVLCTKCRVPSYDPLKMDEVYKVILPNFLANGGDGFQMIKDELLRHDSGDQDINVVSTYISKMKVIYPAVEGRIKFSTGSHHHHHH

cynomolgus CD73 on cells = target: T6, cynomolgus CD73 on cells (cynomolgus); assay: flow cytometry on MK-1 cells, IgG1-TM
T6 construct: whole, on cells; also called native CD73 on MK-1 cells (cynomolgus)
Experimental: All flow cytometry experiments were run at 4 C and reagents were prepared in PBS/1% FBS buffer. 10,000 cells were incubated with test antibody in 50 uL volume for 4 hours. Cells were washed twice and incubated in 50 uL goat anti-human IgGFc-AlexaFluor647 conjugate for 15 minutes. Cells were washed, resuspended in buffer supplemented with Dapi, and analyzed on a flow cytometer. Dead cells, identified by high Dapi staining, were excluded from the analysis. For the determination of KD values, a plot of the median fluorescence intensity as a function of test antibody concentration was fitted nonlinearly using a one site binding isotherm model.

B1: MEDI9447 (antibody, V domains shown)
VH: EVQLLESGGGLVQPGGSLRLSCAASGFTFSSYAYSWVRQAPGKGLEWVSAISGSGGRTYYADSVKGRFTISRDNSKNTLYLQMNSLRAEDTAVYYCARLGYGRVDEWGRGTLVTVSS
VL: QSVLTQPPSASGTPGQRVTISCSGSLSNIGRNPVNWYQQLPGTAPKLLIYLDNLRLSGVPDRFSGSKSGTSASLAISGLQSEDEADYYCATWDDSHPGWTFGGGTKLTVL
notes: also called clone 10.3 antibody; 73combo3
[1]
  Kd: 0.0065 nM
  koff: 1.76e-05 s⁻¹
  kon: 2.71e+06 M⁻¹ s⁻¹
Human CD73 N185G
  koff: 0.000245 s⁻¹
  kon: 9.11e+06 M⁻¹ s⁻¹
Human CD73 V144K + N185G
  binding result: no binding
Human CD73 K180A + N185G
  binding result: no binding
CD73 chimera KO_Nterm
  binding result: no binding (tested: 5 nM to 0.3 nM)
Cynomolgus CD73 on cells
  Kd: 0.084 nM
